In publication PMC3435532 one finds binding signal (fold (reference, non-acetylated)) and binding signal (fold vs non-acetylated FLI1-CTD) data, which are given here for one substance.

Data set [1] has as its system FLI1-CTD (C-terminal FLI1 domain, non-acetylated). The experiment in a line: EMSA. To be noted: Non-radioactive EMSA: 1 ug protein, 500 fmol biotinylated dsDNA, binding buffer per Uren et al. 2004 (not given); 6% gel in 0.5x TBE; protein stock 20 mM ….
The test system of a further data set is acetyl-FLI1-CTD. Description: EMSA. The note with it: acetylated by CBP HAT; 1 ug protein, 500 fmol probe; Non-radioactive EMSA: 1 ug protein, 500 fmol biotinylated dsDNA, binding buffer per Uren et al. 2004 (not given); 6% gel in 0.5x TBE; protein stock 20 mM ….

On to “ets-binding site oligonucleotide (wild type)”, for which the binding signal (fold (reference, non-acetylated)) in data set [1] turned out to be 1. Also, the binding signal (fold vs non-acetylated FLI1-CTD) in the data set with acetyl-FLI1-CTD was 4.
